Blank lines part the entries; values can stand above or below the binder they belong to.
Columns and labels:
Conditions in all cases: both partners purified
[1] = biological target: T1, unlabeled recombinant wild-type human histone H1.0 (human, UniProt P07305 1-194); test: single-molecule FRET of freely diffusing molecules, competition titration; 50 pM labeled ProTα and constant unlabeled H1 (10 nM; also 1 µM and 20 µM in Fig. 2), unlabeled ProTα varied; TBS, 200 mM ionic strength; coupled binding equilibria fit
T1 construct: linker histone H1.0, human, H1F0 gene, UniProt P07305, wild type; also called linker histone H1.0; unlabeled H1; source: bought: New England Biolabs (cat. # M2501S)

[2] = biological target: T1, unlabeled recombinant wild-type human …; test: single-molecule FRET of surface-immobilized molecules; biotinylated labeled ProTα immobilised on neutravidin/PEG surface, nanomolar unlabeled H1 in solution; degassed TBS in D2O, 200 mM ionic strength, oxygen scavenger; two-state hidden Markov model of photon time traces
[3] = biological target: T1, unlabeled recombinant wild-type human …; test: single-molecule FRET of freely diffusing molecules; 50 pM donor/acceptor-labeled ProTα titrated with unlabeled H1; fraction bound from transfer efficiency histograms; 10 mM TBS, 0.1 mM EDTA, 200 mM ionic strength (KCl), 140 mM β-mercaptoethanol, 0.01% Tween 20

Kd [1]: 1.1 nM
B1: unlabeled ProTα (natural protein, human, UniProt P06454 1-111, looked up)
chain: MSDAAVDTSSEITTKDLKEKKEVVEEAENGRDAPANGNAENEENGEQEADNEVDEEEEEGGEEEEEEEEGDGEEEDGDEDEEAESATGKRAAEDDEDDDVDTKKQKTDEDD
notes: prothymosin α (ProTα), human, PTMA gene, UniProt P06454; The main text calls it only 'unlabeled ProTα'; also called prothymosin α; source: E. coli C41, purified (IMAC, tag cleavage, RP-HPLC)

Kd [2]: 1.2 ± 0.1 nM
koff [2]: 1.7 ± 0.1 s⁻¹
kon [2]: 1.45e+09 M⁻¹ s⁻¹
B2: Avi-Tag-ProTα E56C/D110C labeled with Cy3B/LD650 (natural protein)
chain: MSDAAVDTSSEITTKDLKEKKEVVEEAENGRDAPANGNAENEENGEQEADNEVDEECEEGGEEEEEEEEGDGEEEDGDEDEEAESATGKRAAEDDEDDDVDTKKQKTDEDC
modifications: biotin on Lys12 of the Avi-tag; Cy3B maleimide and LD650 maleimide on the cysteines at positions 56 and 110

Kd [3]: 0.73 nM
B3: ProTα E56C/D110C labeled with Alexa Fluor 488/594 (natural protein)
chain: SDAAVDTSSEITTKDLKEKKEVVEEAENGRDAPANGNAENEENGEQEADNEVDEECEEGGEEEEEEEEGDGEEEDGDEDEEAESATGKRAAEDDEDDDVDTKKQKTDEDC
modifications: Alexa Fluor 488 maleimide and Alexa Fluor 594 maleimide on the cysteines at positions 56 and 110

From publication PMC7661507, “Polyelectrolyte interactions enable rapid association and dissociation in high-affinity disordered protein complexes” (Nature Communications, 2020)
